The experiment relates to Penta-His antibody. Briefly: Competition study with HisTagged proteins (HisTag FPIA). The experiment is classed as binding. The following applies: 1-2 nM fluor-AHHHHHHG, 10 nM Penta-His antibody, approx. 60 min at room temperature; read-out: approximate IC50 (concentration of competitor required to decrease FP signal by 50%). The procedure:
Purified N-terminal HisTagged proteins were serially diluted into PBS +0.01% NP-40 in a multiwell plates. 1-2 nM fluorescein labeled peptide (fluor-AHHHHHHG) and 10 nM of Penta-His antibody were then added to each reaction to a final volume of 50-100 ul. After approximately 60 min incubation at room temperature to insure equilibrium binding, the polarization was measured on a Tecan Polarian multiwell instrument.
Protein Kinase A (PKA) is a serine/threonine kinase, ZAP-70 is a tyrosine kinase, and the Estrogen Receptor Ligand Binding Domain (ER-LBD) is comprised of the C-terminal 300 amino acids of ERα; all three proteins were highly purified and active.

B1: ZAP-70: recombinant human tyrosine kinase with N-terminal six-histidine fusion (protein, UniProt P43403 1-619, looked up)
Tyrosine-protein kinase ZAP-70: MPDPAAHLPFFYGSISRAEAEEHLKLAGMADGLFLLRQCLRSLGGYVLSLVHDVRFHHFPIERQLNGTYAIAGGKAHCGPAELCEFYSRDPDGLPCNLRKPCNRPSGLEPQPGVFDCLRDAMVRDYVRQTWKLEGEALEQAIISQAPQVEKLIATTAHERMPWYHSSLTREEAERKLYSGAQTDGKFLLRPRKEQGTYALSLIYGKTVYHYLISQDKAGKYCIPEGTKFDTLWQLVEYLKLKADGLIYCLKEACPNSSASNASGAAAPTLPAHPSTLTHPQRRIDTLNSDGYTPEPARITSPDKPRPMPMDTSVYESPYSDPEELKDKKLFLKRDNLLIADIELGCGNFGSVRQGVYRMRKKQIDVAIKVLKQGTEKADTEEMMREAQIMHQLDNPYIVRLIGVCQAEALMLVMEMAGGGPLHKFLVGKREEIPVSNVAELLHQVSMGMKYLEEKNFVHRDLAARNVLLVNRHYAKISDFGLSKALGADDSYYTARSAGKWPLKWYAPECINFRKFSSRSDVWSYGVTMWEALSYGQKPYKKMKGPEVMAFIEQGKRMECPPECPPELYALMSDCWIYKWEDRPDFLTVEQRMRACYYSLASKVEGPPGSTQKAEAACA
modifications: N-terminal polyhistidine tag
As to B1, the IC50 was roughly 36 nM.

Source of the values: patent US20030044789A1, “Identification and quantification of a protein carrying an N-terminal polyhistidine affinity tag” (priority 2000, published 2003).
